In patent US20150203577A1 (Chugai, published 2015):

T1: mouse FcγRIII (mouse, UniProt P08508 31-215)
T1 construct: Extracellular domain with C-terminal His tag; also called mFcγRIII; mFcgRIII
T1 chain: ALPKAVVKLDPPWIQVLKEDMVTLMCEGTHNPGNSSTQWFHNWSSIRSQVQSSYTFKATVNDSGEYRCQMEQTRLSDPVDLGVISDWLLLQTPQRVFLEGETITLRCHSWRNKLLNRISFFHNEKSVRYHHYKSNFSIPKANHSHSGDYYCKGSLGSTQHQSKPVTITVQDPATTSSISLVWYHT

T2: mouse FcγRII (mouse, UniProt P08101 30-210)
T2 construct: Extracellular domain with C-terminal His tag; also called mFcγRII; mFcgRII
T2 sequence: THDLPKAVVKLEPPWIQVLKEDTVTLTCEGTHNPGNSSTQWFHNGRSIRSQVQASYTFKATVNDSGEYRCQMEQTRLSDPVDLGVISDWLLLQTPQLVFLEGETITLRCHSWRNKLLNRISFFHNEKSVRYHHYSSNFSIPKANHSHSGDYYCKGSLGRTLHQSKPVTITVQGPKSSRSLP

T3: mouse FcγRIII (mouse, UniProt P08508 31-215)
T3 construct: also called mFcγRIII; mFcgRIII
T3 chain: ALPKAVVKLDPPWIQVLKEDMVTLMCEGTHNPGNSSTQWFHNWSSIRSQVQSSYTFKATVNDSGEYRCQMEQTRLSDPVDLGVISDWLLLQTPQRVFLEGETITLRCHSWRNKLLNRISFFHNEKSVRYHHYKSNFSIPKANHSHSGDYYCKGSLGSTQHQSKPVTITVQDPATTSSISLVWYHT


Assays:
mouse FcγRIII [1] = target: T1, mouse FcγRIII; experiment: SPR (Biacore T200); KD of H237-MB630/MRAL-k0 / KD of variant
Source text: (§1) The antibody H chain variable region used was the variable region H237 (SEQ ID NO: 1) of the H chain VH3-IgG1 of the anti-IL-6 receptor antibody Fv4-IgG1 described in WO2009/125825. The antibody L chain commonly used was the L chain MRAL-k0 (SEQ ID NO: 2) of the anti-IL-6 receptor antibody tocilizumab. […] These variants were expressed and purified by the method of Reference Example 1 and evaluated for their binding to mFcγRII and mFcγRIII by the method of Reference Example 2 using Biacore T200.
(§2) Each altered antibody was analyzed for its interaction with each Fcγ receptor prepared above using Biacore T100 (GE Healthcare Japan Corp.), Biacore T200 (GE Healthcare Japan Corp.), Biacore A100, or Biacore 4000. The running buffer used was HBS-EP+ (GE Healthcare Japan Corp.). The assay temperature was set to 25° C. The sensor chips used were chips prepared by immobilizing Protein L (ACTIGEN or BioVision) onto Series S Sensor Chip CM5 (GE Healthcare Japan Corp.) or Series S Sensor Chip CM4 (GE Healthcare Japan Corp.) by the amine coupling method.
(§3) In order to calculate the KD value of each altered antibody for FcγR, kinetic analysis was conducted according to the following method: first, the antibody of interest was captured onto any of these chips and allowed to interact with mFcγR diluted with a running buffer. For the obtained sensorgram, the assay results were globally fit into the 1:1 Langmuir binding model using Biacore Evaluation Software to calculate an association rate constant ka (L/mol/s) and a dissociation rate constant kd (1/s). From these values, the dissociation constant KD (mol/L) was calculated.

mouse FcγRII [2] = target: T2, mouse FcγRII; experiment: as above
Source text: as §1, §2, §3

mouse FcγRIII [3] = target: T1, mouse FcγRIII; experiment: SPR (Biacore T200); KD of H237-mIgG1/MRAL-k0 / KD of variant
Source text: as §1, §2

mouse FcγRII [4] = target: T2, mouse FcγRII; experiment: as above
Source text: as §1, §2

mouse FcγRIII [5] = target: T3, mouse FcγRIII; experiment: SPR (Biacore), antibody captured on Protein L, mFcγR as analyte
Procedure: as §2, §3

Row | Binder | Relative mFcγRIII-binding activity (MB630 = 1) (mouse FcγRIII [1]) [fold] | Relative mFcγRII-binding activity (MB630 = 1) (mouse FcγRII [2]) [fold] | relative mFcγRIII-binding activity (mIgG1 = 1) (mouse FcγRIII [3]) [fold] | relative mFcγRII-binding activity (mIgG1 = 1) (mouse FcγRII [4]) [fold] | relative mFcγRIII-binding activity (mIgG1 = 1) (mouse FcγRIII [5]) [fold]
1 | MB750 (antibody, mouse IgG1, kappa, CH name; VH H237 + CH, L chain MRAL-k0; copies: 2 + 2) heavy: QVQLQESGPGLVKPSETLSLTCAVSGHSISHDHAWSWVRQPPGEGLEWIGFISYSGITNYNPSLQGRVTISRDNSKNTLYLQMNSLRAEDTAVYYCARSLARTTAMDYWGEGTLVTVSSAKTTPPSVYPLAPGSAAQTNSMVTLGCLVKGYFPEPVTVTWNSGSLSSGVHTFPAVLQSDLYTLSSSVTVPSSTWPSETVTCNVAHPASSTKVDKKIVPRDCGCKPCICEPNEVELVFIFPPKPKDVLTITLTPKVTCVVVDISKDDPEVQFSWFVDDVEVHTAQTQPREEQFNSTFRSVSELPIMHQDWLNGKEFKCRVNSDAFPAPIEKTISKTKGRPKAPQVYTIPPPKEQMAKDKVSLTCMITDFFPEDITVEWQWNGQPAENYKNTQPIMDTDGSYFVYSKLNVQKSNWEAGNTFTCSVLHEGLHNHHTEKSLSHSPGK light: not shown | 2.06 | 1.77 | 0.4 | 29.4 | 
2 | H237-MB642/MRAL-k0 (antibody, mouse IgG1, kappa, mouse IgG1 CH variant; copies: 2 + 2) heavy: QVQLQESGPGLVKPSETLSLTCAVSGHSISHDHAWSWVRQPPGEGLEWIGFISYSGITNYNPSLQGRVTISRDNSKNTLYLQMNSLRAEDTAVYYCARSLARTTAMDYWGEGTLVTVSSAKTTPPSVYPLAPGSAAQTNSMVTLGCLVKGYFPEPVTVTWNSGSLSSGVHTFPAVLQSDLYTLSSSVTVPSSTWPSETVTCNVAHPASSTKVDKKIVPRDCGCKPCICEDYEVEYVFIFPPKPKDVLTITLTPKVTCVVVDISKDDPEVQFSWFVDDVEVHTAQTQPREEQFNSTFRSVSELPIMHQDWLNGKEFKCRVNSAAFPAPIEKTISKTKGRPKAPQVYTIPPPKEQMAKDKVSLTCMITDFFPEDITVEWQWNGQPAENYKNTQPIMDTDGSYFVYSKLNVQKSNWEAGNTFTCSVLHEGLHNHHTEKSLSHSPGK light: not shown |  |  |  |  | 0.1
3 | MB748 (antibody, mouse IgG1, kappa, CH name; VH H237 + CH, L chain MRAL-k0; copies: 2 + 2) heavy: QVQLQESGPGLVKPSETLSLTCAVSGHSISHDHAWSWVRQPPGEGLEWIGFISYSGITNYNPSLQGRVTISRDNSKNTLYLQMNSLRAEDTAVYYCARSLARTTAMDYWGEGTLVTVSSAKTTPPSVYPLAPGSAAQTNSMVTLGCLVKGYFPEPVTVTWNSGSLSSGVHTFPAVLQSDLYTLSSSVTVPSSTWPSETVTCNVAHPASSTKVDKKIVPRDCGCKPCICEPNEVELVFIFPPKPKDVLTITLTPKVTCVVVDIAKDDPEVQFSWFVDDVEVHTAQTQPREEQFNSTFRSVSELPIMHQDWLNGKEFKCRVNSAAFPAPIEKTISKTKGRPKAPQVYTIPPPKEQMAKDKVSLTCMITDFFPEDITVEWQWNGQPAENYKNTQPIMDTDGSYFVYSKLNVQKSNWEAGNTFTCSVLHEGLHNHHTEKSLSHSPGK light: not shown | 0.7 | 0.7 | 0.14 | 11.7 | 
4 | H237-MB657/MRAL-k0 (antibody, mouse IgG1, kappa, mouse IgG1 CH variant; copies: 2 + 2) heavy: QVQLQESGPGLVKPSETLSLTCAVSGHSISHDHAWSWVRQPPGEGLEWIGFISYSGITNYNPSLQGRVTISRDNSKNTLYLQMNSLRAEDTAVYYCARSLARTTAMDYWGEGTLVTVSSAKTTPPSVYPLAPGSAAQTNSMVTLGCLVKGYFPEPVTVTWNSGSLSSGVHTFPAVLQSDLYTLSSSVTVPSSTWPSETVTCNVAHPASSTKVDKKIVPRDCGCKPCICEPNEVEFVFIFPPKPKDVLTITLTPKVTCVVVDISKDDPEVQFSWFVDDVEVHTAQTQPREEQFNSTFRSVSELPIMHQDWLNGKEFKCRVNSAAFPAPIEKTISKTKGRPKAPQVYTIPPPKEQMAKDKVSLTCMITDFFPEDITVEWQWNGQPAENYKNTQPIMDTDGSYFVYSKLNVQKSNWEAGNTFTCSVLHEGLHNHHTEKSLSHSPGK light: not shown |  |  |  |  | 0.09
5 | MB749 (antibody, mouse IgG1, kappa, CH name; VH H237 + CH, L chain MRAL-k0; copies: 2 + 2) heavy: QVQLQESGPGLVKPSETLSLTCAVSGHSISHDHAWSWVRQPPGEGLEWIGFISYSGITNYNPSLQGRVTISRDNSKNTLYLQMNSLRAEDTAVYYCARSLARTTAMDYWGEGTLVTVSSAKTTPPSVYPLAPGSAAQTNSMVTLGCLVKGYFPEPVTVTWNSGSLSSGVHTFPAVLQSDLYTLSSSVTVPSSTWPSETVTCNVAHPASSTKVDKKIVPRDCGCKPCICEPNEVELVFIFPPKPKDVLTITLTPKVTCVVVDISKDDPEVQFSWFVDDVEVHTAQTQPREELFNSTFRSVSELPIMHQDWLNGKEFKCRVNSAAFPAPIEKTISKTKGRPKAPQVYTIPPPKEQMAKDKVSLTCMITDFFPEDITVEWQWNGQPAENYKNTQPIMDTDGSYFVYSKLNVQKSNWEAGNTFTCSVLHEGLHNHHTEKSLSHSPGK light: not shown | 1.96 | 1.52 | 0.38 | 25.3 | 

Continued, values first:

Row | Relative mFcγRIII-binding activity (MB630 = 1) (mouse FcγRIII [1]) [fold] | Relative mFcγRII-binding activity (MB630 = 1) (mouse FcγRII [2]) [fold] | relative mFcγRIII-binding activity (mIgG1 = 1) (mouse FcγRIII [3]) [fold] | relative mFcγRII-binding activity (mIgG1 = 1) (mouse FcγRII [4]) [fold] | relative mFcγRIII-binding activity (mIgG1 = 1) (mouse FcγRIII [5]) [fold] | Binder
6 | 0.44 | 0.36 | 0.09 | 6 |  | MB752 (antibody, mouse IgG1, kappa, CH name; VH H237 + CH, L chain MRAL-k0; copies: 2 + 2) heavy: QVQLQESGPGLVKPSETLSLTCAVSGHSISHDHAWSWVRQPPGEGLEWIGFISYSGITNYNPSLQGRVTISRDNSKNTLYLQMNSLRAEDTAVYYCARSLARTTAMDYWGEGTLVTVSSAKTTPPSVYPLAPGSAAQTNSMVTLGCLVKGYFPEPVTVTWNSGSLSSGVHTFPAVLQSDLYTLSSSVTVPSSTWPSETVTCNVAHPASSTKVDKKIVPRDCGCKPCICEPNEVELVFIFPPKPKDVLTITLTPKVTCVVVDISKDDPEVQFSWFVDDVEVHTAQTQPREEQFNLTFRSVSELPIMHQDWLNGKEFKCRVNSAAFPAPIEKTISKTKGRPKAPQVYTIPPPKEQMAKDKVSLTCMITDFFPEDITVEWQWNGQPAENYKNTQPIMDTDGSYFVYSKLNVQKSNWEAGNTFTCSVLHEGLHNHHTEKSLSHSPGK light: not shown
7 | 0.34 | 0.34 | 0.07 | 5.7 |  | MB753 (antibody, mouse IgG1, kappa, CH name; VH H237 + CH, L chain MRAL-k0; copies: 2 + 2) heavy: QVQLQESGPGLVKPSETLSLTCAVSGHSISHDHAWSWVRQPPGEGLEWIGFISYSGITNYNPSLQGRVTISRDNSKNTLYLQMNSLRAEDTAVYYCARSLARTTAMDYWGEGTLVTVSSAKTTPPSVYPLAPGSAAQTNSMVTLGCLVKGYFPEPVTVTWNSGSLSSGVHTFPAVLQSDLYTLSSSVTVPSSTWPSETVTCNVAHPASSTKVDKKIVPRDCGCKPCICEPNEVELVFIFPPKPKDVLTITLTPKVTCVVVDISKDDPEVQFSWFVDDVEVHTAQTQPREEQFNMTFRSVSELPIMHQDWLNGKEFKCRVNSAAFPAPIEKTISKTKGRPKAPQVYTIPPPKEQMAKDKVSLTCMITDFFPEDITVEWQWNGQPAENYKNTQPIMDTDGSYFVYSKLNVQKSNWEAGNTFTCSVLHEGLHNHHTEKSLSHSPGK light: not shown
8 | 1.63 | 1.53 | 0.32 | 25.4 |  | MB751 (antibody, mouse IgG1, kappa, CH name; VH H237 + CH, L chain MRAL-k0; copies: 2 + 2) heavy: QVQLQESGPGLVKPSETLSLTCAVSGHSISHDHAWSWVRQPPGEGLEWIGFISYSGITNYNPSLQGRVTISRDNSKNTLYLQMNSLRAEDTAVYYCARSLARTTAMDYWGEGTLVTVSSAKTTPPSVYPLAPGSAAQTNSMVTLGCLVKGYFPEPVTVTWNSGSLSSGVHTFPAVLQSDLYTLSSSVTVPSSTWPSETVTCNVAHPASSTKVDKKIVPRDCGCKPCICEPNEVELVFIFPPKPKDVLTITLTPKVTCVVVDISKDDPEVQFSWFVDDVEVHTAQTQPREEQFNSTFRSVSELPIMHQDWLNGKEFKCRVNSAAFPAPIERTISKTKGRPKAPQVYTIPPPKEQMAKDKVSLTCMITDFFPEDITVEWQWNGQPAENYKNTQPIMDTDGSYFVYSKLNVQKSNWEAGNTFTCSVLHEGLHNHHTEKSLSHSPGK light: not shown
